One block for each binder: values may come before it.
Tests used:
human CXCR5 [1] = target: T1, human CXCR5 (human, UniProt P32302 1-372); assay: cell-based or functional assay
T1 sequence: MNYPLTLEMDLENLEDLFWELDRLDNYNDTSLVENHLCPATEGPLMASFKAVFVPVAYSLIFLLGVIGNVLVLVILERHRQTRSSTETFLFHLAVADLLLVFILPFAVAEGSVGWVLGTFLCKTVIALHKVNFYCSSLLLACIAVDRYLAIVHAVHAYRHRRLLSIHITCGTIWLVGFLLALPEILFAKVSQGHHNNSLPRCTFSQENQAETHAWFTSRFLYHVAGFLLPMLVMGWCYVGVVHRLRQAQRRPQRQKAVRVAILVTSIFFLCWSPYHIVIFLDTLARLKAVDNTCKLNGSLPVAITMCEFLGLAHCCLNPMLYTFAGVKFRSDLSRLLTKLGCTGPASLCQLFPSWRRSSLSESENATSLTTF

cynomolgus monkey CXCR5 [2] = target: T2, cynomolgus monkey CXCR5 (cynomolgus monkey, UniProt P32302 1-372 (human entry)); assay: cell-based or functional assay
T2 chain: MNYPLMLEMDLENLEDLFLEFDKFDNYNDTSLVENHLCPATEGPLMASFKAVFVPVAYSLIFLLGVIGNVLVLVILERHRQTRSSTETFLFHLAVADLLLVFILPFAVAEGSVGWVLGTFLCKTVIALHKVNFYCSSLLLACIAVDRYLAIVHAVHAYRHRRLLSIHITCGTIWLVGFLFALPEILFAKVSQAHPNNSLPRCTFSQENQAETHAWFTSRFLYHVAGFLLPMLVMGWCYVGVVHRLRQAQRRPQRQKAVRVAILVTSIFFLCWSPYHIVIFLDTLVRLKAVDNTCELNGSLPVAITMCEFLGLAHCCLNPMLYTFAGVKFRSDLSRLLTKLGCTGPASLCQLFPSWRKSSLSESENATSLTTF

human CXCR5 [3] = target: T1, human CXCR5; assay: flow cytometry, human PBMC B cells
Outline: (§1)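 Human and cynomolgus PBMCs stained with 4-fold serial antibody dilutions (11 points from 5000 ng/mL) plus Fc block, 2 h on ice, then lineage markers and anti-human Ig secondary 30 min at 4 °C. gMFI of binding population read by flow cytometry; EC50 from sigmoidal fit of equilibrium binding curves.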

human CXCR5 [4] = target: T1, human CXCR5; assay: flow cytometry, human tonsil Tfh cells
Procedure: Following centrifugation, red blood cell lysis was performed on the pellet using an ammonium chloride lysis buffer. Platelets were removed using a low speed centrifugation (200×g) for 10 minutes in Phosphate-Buffered Saline (PBS)/2% FBS/2 mM Ethylenediaminetetraacetic acid (EDTA). CD4+ T cells were purified out of the TMC mixture using an EasySep™ Human CD4+ T Cell Enrichment Kit, according to the manufacturer's instructions ([…] Technologies, Vancouver, BC, Canada).
Following isolation, PBMCs were plated at a density of 1.0×10⁵ cells per well and CD4+ TMCs were plated at a density of 2.0×10⁵ cells per well in isolation buffer (PBS containing 1% FBS and 1 mM EDTA) in 96 well U-bottom plates. The plates were then centrifuged at 1500 rpm for 5 minutes at room temperature. PBMCs and CD4+ TMCs were resuspended in Fluorescence-activated cell sorting (FACS) buffer (PBS containing 1% FBS) containing human crystallized fragment Fc block (2 μL per well; Biolegend) and 4-fold serial dilutions of the antibodies (11-point dilution series, beginning at 5000 ng/mL for PBMCs and 312.5 ng/mL for CD4+ TMCs) and incubated on ice for 2 hours. PBMCs and CD4+ TMCs were then washed with FACS buffer 3 times and resuspended in 50-100 μL of FACs buffer containing fluorescent-conjugated antibodies for staining lymphocyte subsets and a fluorescent-conjugated secondary antibody against human Ig to detect CXCR5 monoclonal antibodies (mAbs). After incubation for 30 minutes at 4° C., PBMCs and CD4+ TMCs were washed with FACS buffer 2 times and resuspended in 125 μL of 0.5% paraformaldehyde (PFA) in PBS. Plates were stored at 4° C. until analysis by flow cytometry (BD LSRFortessa™ Cell Analyzer, BD Biosciences, Franklin Lakes, N.J.).
The cell binding titration curves were generated by plotting the gMFI of the antigen binding population against the log of CXCR5 antibody concentration. EC₅₀ values were determined using GraphPad Prism® (version 6.0, GraphPad Software, Inc, San Diego, Calif.) nonlinear-regression curve fits and a sigmoidal log of agonist dose-response model, according to the following equation

cynomolgus monkey CXCR5 [5] = target: T2, cynomolgus monkey CXCR5; assay: flow cytometry, cynomolgus PBMC B cells
Outline: as §1

mouse CXCR5 [6] = target: T3, mouse CXCR5 (mouse, UniProt Q04683 1-374); assay: flow cytometry on cells expressing mouse CXCR5
T3 construct: also called mCXCR5
T3 sequence: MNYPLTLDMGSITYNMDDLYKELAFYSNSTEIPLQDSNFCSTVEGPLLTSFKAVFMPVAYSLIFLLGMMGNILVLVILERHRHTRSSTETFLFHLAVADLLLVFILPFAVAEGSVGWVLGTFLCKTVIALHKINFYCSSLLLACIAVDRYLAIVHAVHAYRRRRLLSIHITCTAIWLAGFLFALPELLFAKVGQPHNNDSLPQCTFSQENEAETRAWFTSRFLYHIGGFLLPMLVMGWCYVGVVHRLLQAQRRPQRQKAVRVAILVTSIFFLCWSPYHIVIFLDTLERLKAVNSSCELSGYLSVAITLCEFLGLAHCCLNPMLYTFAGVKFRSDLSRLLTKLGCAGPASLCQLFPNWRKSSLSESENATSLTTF

human CXCR5 [7] = target: T1, human CXCR5; assay: FACS on cells expressing the CXCR5 construct
mouse CXCR5 [8] = target: T3, mouse CXCR5; assay: FACS on cells expressing the CXCR5 construct
XC251 = target: T4, XC251; assay: FACS on cells expressing the CXCR5 construct
T4 construct: whole, on cells; also called hCXCR5-mL3

XC252 = target: T5, XC252; assay: FACS on cells expressing the CXCR5 construct
T5 construct: whole, on cells; also called hCXCR5-mL2

XC255 = target: T6, XC255; assay: FACS on cells expressing the CXCR5 construct
T6 construct: whole, on cells; also called hCXCR5-mN-mL3

ADCC Activity Average EC50, Human B Cells (human CXCR5 [1]): 2.01 pM
ADCC Activity Average EC50, Human Tfh Cells (human CXCR5 [1]): 0.11 pM
ADCC Activity Average EC50, Human Tfh-like Cells (human CXCR5 [1]): 4.82 pM
ADCC Activity Average EC50, NHP B Cells (cynomolgus monkey CXCR5 [2]): 15.3 pM
EC50 (human CXCR5 [3]): 6.6 pM
EC50 (human CXCR5 [4]): 10.6 pM
EC50 (cynomolgus monkey CXCR5 [5]): 1.32 pM
binding result (mouse CXCR5 [6]): no binding
GMFI (human CXCR5 [7]): 139000 GMFI
GMFI (mouse CXCR5 [8]): 901 GMFI
GMFI (XC251): 14600 GMFI
GMFI (XC252): 21600 GMFI
GMFI (XC255): 1320 GMFI
B1: Afucosyl humanized 11G2 154/155 (antibody, human IgG1, kappa, V domains shown)
VH: EVQLVESGGGLVQPGGSLRLSCAASGFTFTDFYMSWVRQAPGKGLEWVGFIRNKANGYTTEYSASVKGRFTISRDNAKNSLYLQMNSLRAEDTAVYYCARVYGSTLHYWGQGTLVTVSS
VL: DIQMTQSPSSLSASVGDRVTITCRASESVEYHGTSLMHWYQQKPGKAPKLLIYAASNVESGVPSRFSGSGSGTDFTLTISSLQPEDFATYYCQQSRKVPWTFGQGTKVEIKR
modifications: afucosylated Fc glycan (Asn297)
notes: also called afucosyl h11G2 XC154/XC155; afucosylated h11G2 VL XC154/VH XC155

ADCC Activity Average EC50, Human B Cells (human CXCR5 [1]): 564 pM
ADCC Activity Average EC50, Human Tfh Cells (human CXCR5 [1]): 1.55 pM
ADCC Activity Average EC50, NHP B Cells (cynomolgus monkey CXCR5 [2]): 115 pM
EC50 (human CXCR5 [3]): 17.9 pM
EC50 (human CXCR5 [4]): 8.46 pM
EC50 (cynomolgus monkey CXCR5 [5]): 6.95 pM
B2: Chimeric 11G2 (antibody, human IgG1, kappa, V domains shown)
VH: EVKLVESGGGLVQPGGSLRLSCATSGFTFTDFYMSWVRQPPGRALEWLGFIRNKANGYTTEYSASVKGRFTISRDNSQSILYLQMNTLRAGDSATYYCVRVYGSTLHYWGQGTILTVSS
VL: DVVVTQSPDSLAVSLGQRATISCRASESVEYHGTSLMHWYQQKPGQPPKLLIYAASNVESGVPARFSGSGSGTDFSLNIHPVEEGDIAMYFCQQSRKVPWTFGGGTKLEIKR
notes: mouse V regions on human IgG1/kappa; also called 11G2 (chimeric)

ADCC Activity Average EC50, Human B Cells (human CXCR5 [1]): 380 pM
EC50 (human CXCR5 [3]): 65.6 pM
binding result (mouse CXCR5 [6]): no binding
GMFI (human CXCR5 [7]): 117000 GMFI
GMFI (mouse CXCR5 [8]): 1180 GMFI
GMFI (XC251): 13300 GMFI
GMFI (XC252): 22400 GMFI
GMFI (XC255): 1950 GMFI
B3: 2C9 (reference antibody) (antibody, human IgG1, kappa, V domains shown)
VH: EVQLVESGGGLVKPGGSLRLSCAASGFTFSTNAMNWVRQAPGKGLERVARIRSKSNNYATYYADSVKDRFTISRDDSKNTLYLQMNSLKTEDTAVYYCVTMIPFAYWGQGTLVTVSS
VL: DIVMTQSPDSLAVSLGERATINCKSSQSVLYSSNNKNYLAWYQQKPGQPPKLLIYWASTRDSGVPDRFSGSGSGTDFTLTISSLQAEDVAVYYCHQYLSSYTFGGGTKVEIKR
notes: fucosylated
